The data set has as its target T1, ErdR (CrbR), 6His-ErdR (Pseudomonas putida KT2440) (UniProt Q88MD8).
T1 sequence: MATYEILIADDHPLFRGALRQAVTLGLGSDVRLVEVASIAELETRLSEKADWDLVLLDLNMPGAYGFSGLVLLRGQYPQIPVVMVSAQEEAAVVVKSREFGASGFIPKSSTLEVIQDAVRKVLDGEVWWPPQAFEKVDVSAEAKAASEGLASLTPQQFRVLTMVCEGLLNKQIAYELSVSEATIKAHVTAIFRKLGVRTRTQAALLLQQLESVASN
Nature of the data set: EMSA. The following applies: 10 mM Tris-HCl pH 8, 2 mM MgCl2, 1 mM DTT, 10% glycerol, 12 ng/uL sheared salmon sperm DNA, 2 mM acetyl phosphate when needed; 2.5 ng DNA in 10 uL, 20 min at ….

In the case of “TAGGCGTCCTTTTTGCTCATGAAACTGACCGTATCGCTATGCCGAACTATATATATCTATATATAGGTACCGGCCATGTTGTTCTCTGCCTCCATGGTCGGCTTGCGGCGGGGTGGTGCCCATTGGACGTAAGTCTATGA (double strand) [pp_0354 promoter]”, the binding result is listed as “binds” and the binding signal entry is “binds”.
On to “AATCGCCTTGCCGTTGCTGGCGAGGTGAATTTTATGGCGCTGGCCAAGGCCGAAACAGTGGGTGTTTTGATAAAGTGTTTTGACAGAATCTGTAACAATCCTGTGGCAAACCCCTCGTTTTTTCGTCGGCAAGGCTGTAA (double strand) [acsA-I (1) promoter]”, for which the binding entry is listed as “no binding”.
Same read-out and setting: with “AGCAACGGCAAGGCGATTAACAACTGGTAACAGCCCCCACGAAGGCAAGCGTTAATCTCCATCTAATCCCGATAGTTAAAACTAGCAATACTCGCGGCGCCATAAGCGCCGCGTGCCCCCTCACGACCTTAGACAGGTAA (double strand) [acsA-I (2) promoter]” the entry was “no binding”; with “CGCGAACGGGTCATCACTTTGTTACGCAATCGGTAAAACACCGTTGCATCTAAGACTAAGGTCGTCTGGTTGGCGTCCATCGGCAGCATAAAGTAAGGGTGTGGGTTCCATCCCGTATCTGTGCTGCTAGGACAAAAACA (double strand) [yjcH (actP-I) promoter]”, “binds”.

For the origin of these results see article PMC8402216.
